Values belong to the binder of their own block, whether it stands above or below them.
Key:
[1] = biological target: T1, Ste4-Ste18 dimer (βγ dimer) (Saccharomyces cerevisiae, UniProt P18851 1-423; P18852 1-110, C106S | C107S); assay: SEC
T1 sequence (looked up) 1: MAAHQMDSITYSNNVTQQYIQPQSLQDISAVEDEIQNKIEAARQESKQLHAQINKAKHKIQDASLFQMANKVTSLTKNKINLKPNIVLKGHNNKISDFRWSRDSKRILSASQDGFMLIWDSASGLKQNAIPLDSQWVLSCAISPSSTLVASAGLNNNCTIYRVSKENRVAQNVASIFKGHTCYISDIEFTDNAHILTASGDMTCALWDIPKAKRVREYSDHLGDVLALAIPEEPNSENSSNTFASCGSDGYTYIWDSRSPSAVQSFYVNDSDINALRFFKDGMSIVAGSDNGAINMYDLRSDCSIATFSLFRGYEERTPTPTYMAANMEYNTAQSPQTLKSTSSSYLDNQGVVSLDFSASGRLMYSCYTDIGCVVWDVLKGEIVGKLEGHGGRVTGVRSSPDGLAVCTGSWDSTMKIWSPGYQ
T1 sequence (looked up) 2: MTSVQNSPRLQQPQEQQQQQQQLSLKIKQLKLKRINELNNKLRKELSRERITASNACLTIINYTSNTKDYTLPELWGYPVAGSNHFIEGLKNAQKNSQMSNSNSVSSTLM

[2] = biological target: T2, α-factor-bound Ste2 (Ste2 dimer purified with α-factor) (Saccharomyces cerevisiae, UniProt D6VTK4 1-431, N-acetylglucosamine modelled at Asn25); assay: SEC-MALS
cryo-EM structure = biological target: the molecule itself; assay: cryo-EM structure
[3] = biological target: T2, α-factor-bound Ste2 (Ste2 dimer …); assay: cryo-EM structure

binding result [1]: binds
B1: wild type Gpa1 (S. cerevisiae G protein α-subunit) (natural protein, Saccharomyces cerevisiae, UniProt P08539 1-472, looked up)
chain: MGCTVSTQTIGDESDPFLQNKRANDVIEQSLQLEKQRDKNEIKLLLLGAGESGKSTVLKQLKLLHQGGFSHQERLQYAQVIWADAIQSMKILIIQARKLGIQLDCDDPINNKDLFACKRILLKAKALDYINASVAGGSDFLNDYVLKYSERYETRRRVQSTGRAKAAFDEDGNISNVKSDTDRDAETVTQNEDADRNNSSRINLQDICKDLNQEGDDQMFVRKTSREIQGQNRRNLIHEDIAKAIKQLWNNDKGIKQCFARSNEFQLEGSAAYYFDNIEKFASPNYVCTDEDILKGRIKTTGITETEFNIGSSKFKVLDAGGQRSERKKWIHCFEGITAVLFVLAMSEYDQMLFEDERVNRMHESIMLFDTLLNSKWFKDTPFILFLNKIDLFEEKVKSMPIRKYFPDYQGRVGDAEAGLKYFEKIFLSLNKTNKPIYVKRTCATDTQTMKFVLSAVTDLIIQQNLKKIGII

stoichiometry N [2]: 2 G proteins per Ste2 dimer
B2: wild type Gpa1 heterotrimer (Gpa1-Ste4-Ste18) (complex, Saccharomyces cerevisiae)
chain 1: B1 chain
chain 2: T1 sequence (looked up) 1
chain 3: T1 sequence (looked up) 2

B3: Ste2 (wild-type Saccharomyces cerevisiae pheromone receptor, residues 1-431), purified (receptor, UniProt D6VTK4 1-431, looked up)
chain: MSDAAPSLSNLFYDPTYNPGQSTINYTSIYGNGSTITFDELQGLVNSTVTQAIMFGVRCGAAALTLIVMWMTSRSRKTPIFIINQVSLFLIILHSALYFKYLLSNYSSVTYALTGFPQFISRGDVHVYGATNIIQVLLVASIETSLVFQIKVIFTGDNFKRIGLMLTSISFTLGIATVTMYFVSAVKGMIVTYNDVSATQDKYFNASTILLASSINFMSFVLVVKLILAIRSRRFLGLKQFDSFHILLIMSCQSLLVPSIIFILAYSLKPNQGTDVLTTVATLLAVLSLPLSSMWATAANNASKTNTITSDFTTSTDRFYPGTLSSFQTDSINNDAKSSLRSRLYDLYPRRKETTSDKHSERTFVSETADDIEKNQFYQLPTPTSSKNTRIGPFADASYKEGEVEPVDMYTPDTAADEEARKFWTEDNNNL
modifications: N-acetylglucosamine modelled at Asn25
stoichiometry N (cryo-EM structure): 2

stoichiometry N [3]: 2 G protein heterotrimers per Ste2 homodimer
B4: mini-Gpa1 heterotrimer (mini-Gpa1-Ste4-Ste18) (complex, Saccharomyces cerevisiae)
chain 1: TVSTQTIGDESDPFLQNKRANDVIEQSLQLEKQRDKNEIKLLLLGADNSGKSTVLKQLKLLHGGSGGSGGTTGITETEFNIGSSKFKVLDAGGQRSERKKWIHCFEGITAVLFVLDMSDYNRMHESIMLFDTLLNSKWFKDTPFILFLNKIDLFEEKVKSMPIRKYFPDYQGRVGDAEAGLKYFEKIFLSLNKTNKPIYVKRTCATDTQTAKFILSAVTDLIIQQNLKKIGII
chain 2: T1 sequence (looked up) 1
chain 3: T1 sequence (looked up) 2

From publication PMC7116888 (Nature, 2020)
